The values that follow come from the supplement of paper PMC9112550, “Optimization of the antimicrobial peptide Bac7 by deep mutational scanning” (BMC Biology, 2022).

For the data set, the system named is Escherichia coli TOP10. The experiment in a line: shrunken log2 fold change of peptide-encoding DNA abundance (4.5 h post-induction vs induction); higher = less antimicrobial activity (less host growth inhibition). The settings on record: time post-induction: 4.5 h; library: site-saturation at positions 5, 18, 19, 20.
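Note: peptides expressed intracellularly from a pBAD plasmid library in pooled LB shake-flask culture, induced with 0.3% L-arabinose, DNA abundance read by NGS, three biological replicates, DESeq2 with apeglm shrinkage.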

With RRIRSRPPRLPRPRPRPGRHPRP, the “shrunken log2 fold change” value worked out at 0.0088.
Turning to RRIRRRPPRLPRPRPRPRHQPRP, the “shrunken log2 fold change” value amounted to 0.277.
The figure for RRIRFRPPRLPRPRPRPWVWPRP is 0.212; for RRIRPRPPRLPRPRPRPPEYPRP it is -0.558.
The figure for RRIRTRPPRLPRPRPRPPYRPRP is -0.187.
The figure for RRIRTRPPRLPRPRPRPMDQPRP is 0.0595; for RRIRYRPPRLPRPRPRPQNSPRP it is -0.00968.
As for RRIRPRPPRLPRPRPRPGPIPRP, the “shrunken log2 fold change” value is 0.148.
RRIRKRPPRLPRPRPRPYQSPRP: the “shrunken log2 fold change” value was 0.000846.
Take RRIRDRPPRLPRPRPRPREQPRP: the “shrunken log2 fold change” value was found to be 1.36.
On to RRIRHRPPRLPRPRPRPCFGPRP, for which the “shrunken log2 fold change” value is 0.104.
On to RRIRVRPPRLPRPRPRPCNKPRP, for which the “shrunken log2 fold change” value was -0.311.
In the case of RRIRGRPPRLPRPRPRPCYNPRP, the “shrunken log2 fold change” value was found to be 0.0333.
Regarding RRIRTRPPRLPRPRPRPYPNPRP, the “shrunken log2 fold change” value was -0.414.
On to RRIRFRPPRLPRPRPRPQMPPRP, for which the “shrunken log2 fold change” value was -0.107.
The figure for RRIRDRPPRLPRPRPRPHQWPRP is 0.031; for RRIRLRPPRLPRPRPRPDNIPRP it is -0.535; for RRIRIRPPRLPRPRPRPRLEPRP it is 0.117.
As for RRIRWRPPRLPRPRPRPVQAPRP, the figure is 0.36.
The figure for RRIRNRPPRLPRPRPRPSRDPRP is -0.129; for RRIRWRPPRLPRPRPRPASMPRP it is -0.0478; for RRIRYRPPRLPRPRPRPCSVPRP it is -1.08.
As to RRIRHRPPRLPRPRPRPSPVPRP, the “shrunken log2 fold change” value is -0.0462.
The figure for RRIRQRPPRLPRPRPRPPIYPRP is -0.129; for RRIRGRPPRLPRPRPRPRMDPRP it is 0.59; for RRIRARPPRLPRPRPRPLTNPRP it is 0.303.
Turning to RRIRYRPPRLPRPRPRPMVQPRP, the “shrunken log2 fold change” value was 0.0303.
As for RRIRVRPPRLPRPRPRPDDMPRP, the figure is -0.239.
The figure for RRIRCRPPRLPRPRPRPGFHPRP is -0.435; for RRIRTRPPRLPRPRPRPCSKPRP it is -0.074; for RRIRSRPPRLPRPRPRPDIPPRP it is -0.178.
As for RRIRLRPPRLPRPRPRPACMPRP, the figure is 0.00459; as for RRIRLRPPRLPRPRPRPFTMPRP, -0.764; as for RRIRVRPPRLPRPRPRPRIWPRP, 0.468.
For the sequence RRIRGRPPRLPRPRPRPLDTPRP, the “shrunken log2 fold change” value came to 0.963.
As for RRIRERPPRLPRPRPRPLTKPRP, the figure is -0.0153; as for RRIRRRPPRLPRPRPRPTDEPRP, 0.355.
On to RRIRGRPPRLPRPRPRPRQEPRP, for which the “shrunken log2 fold change” value came out at 0.527.
As for RRIRLRPPRLPRPRPRPIWLPRP, the figure is 0.132; as for RRIRSRPPRLPRPRPRPNPNPRP, -0.283; as for RRIRVRPPRLPRPRPRPIPVPRP, -0.363.
Regarding RRIRWRPPRLPRPRPRPFFSPRP, the “shrunken log2 fold change” value was -0.101.
Turning to RRIRLRPPRLPRPRPRPFAMPRP, the “shrunken log2 fold change” value is -0.407.
The figure for RRIRLRPPRLPRPRPRPKALPRP is -0.224; for RRIRTRPPRLPRPRPRPCIWPRP it is -0.0258; for RRIRPRPPRLPRPRPRPGVEPRP it is 0.249.
As for RRIRSRPPRLPRPRPRPWIEPRP, the figure is -0.0567; as for RRIRYRPPRLPRPRPRPKHCPRP, -0.611; as for RRIRKRPPRLPRPRPRPNHPPRP, 0.0844.
The figure for RRIRSRPPRLPRPRPRPTYPPRP is -0.0945; for RRIRLRPPRLPRPRPRPKWHPRP it is -0.207; for RRIRDRPPRLPRPRPRPLRRPRP it is 0.463.
Take RRIRRRPPRLPRPRPRPILNPRP: the “shrunken log2 fold change” value was -0.0188.
The figure for RRIRFRPPRLPRPRPRPKYKPRP is -0.63; for RRIRDRPPRLPRPRPRPMAMPRP it is 0.25.
The figure for RRIRWRPPRLPRPRPRPMYFPRP is -0.555; for RRIRNRPPRLPRPRPRPGPGPRP it is 0.274.
Turning to RRIRTRPPRLPRPRPRPNATPRP, the “shrunken log2 fold change” value was 0.469.
Regarding RRIRTRPPRLPRPRPRPNSIPRP, the “shrunken log2 fold change” value was -0.0867.
The figure for RRIRQRPPRLPRPRPRPMKDPRP is -0.447; for RRIRHRPPRLPRPRPRPDVWPRP it is 0.15; for RRIRERPPRLPRPRPRPLAGPRP it is -0.113.
With RRIRIRPPRLPRPRPRPVFPPRP, the “shrunken log2 fold change” value is -0.221.
As to RRIRARPPRLPRPRPRPASMPRP, the “shrunken log2 fold change” value turned out to be 0.301.
On to RRIRQRPPRLPRPRPRPANPPRP, for which the “shrunken log2 fold change” value was -0.234.
The figure for RRIRSRPPRLPRPRPRPWDMPRP is -0.254; for RRIRWRPPRLPRPRPRPNDWPRP it is 0.00443; for RRIRWRPPRLPRPRPRPQCTPRP it is 0.11.
Take RRIRFRPPRLPRPRPRPCCIPRP: the “shrunken log2 fold change” value is -0.313.
Turning to RRIRHRPPRLPRPRPRPIYVPRP, the “shrunken log2 fold change” value was -0.0627.
On to RRIRYRPPRLPRPRPRPWVMPRP, for which the “shrunken log2 fold change” value is -0.195.
As for RRIRPRPPRLPRPRPRPMMFPRP, the figure is -0.213.
For the sequence RRIRERPPRLPRPRPRPANMPRP, the “shrunken log2 fold change” value was -0.19.
On to RRIRSRPPRLPRPRPRPYIQPRP, for which the “shrunken log2 fold change” value was -1.18.
As for RRIRGRPPRLPRPRPRPSAVPRP, the figure is 1.39; as for RRIRRRPPRLPRPRPRPDPQPRP, 1.23; as for RRIRTRPPRLPRPRPRPCIEPRP, -0.183.
As for RRIRSRPPRLPRPRPRPESPPRP, the “shrunken log2 fold change” value turned out to be 0.32.
In the case of RRIRMRPPRLPRPRPRPMAEPRP, the “shrunken log2 fold change” value turned out to be 2.79.
With RRIRSRPPRLPRPRPRPEDMPRP, the “shrunken log2 fold change” value is -0.088.
The figure for RRIRRRPPRLPRPRPRPHNSPRP is 0.0175.
Turning to RRIRVRPPRLPRPRPRPCHTPRP, the “shrunken log2 fold change” value was -0.0202.
As for RRIRLRPPRLPRPRPRPQKGPRP, the figure is -0.183; as for RRIRDRPPRLPRPRPRPGFYPRP, 0.00794.
The figure for RRIRYRPPRLPRPRPRPEPKPRP is 0.0661.
Consider RRIRHRPPRLPRPRPRPHKTPRP, for which the “shrunken log2 fold change” value was 0.00711.
As for RRIRQRPPRLPRPRPRPYDAPRP, the figure is 0.0382; as for RRIRIRPPRLPRPRPRPLHVPRP, -0.135; as for RRIRCRPPRLPRPRPRPTTAPRP, 0.166.
The figure for RRIRKRPPRLPRPRPRPVPYPRP is -0.0558; for RRIRHRPPRLPRPRPRPWKLPRP it is -0.185.
In the case of RRIRPRPPRLPRPRPRPKSWPRP, the “shrunken log2 fold change” value amounted to 0.258.
As for RRIRHRPPRLPRPRPRPPALPRP, the figure is -0.00181; as for RRIRIRPPRLPRPRPRPQRMPRP, -0.387.
The figure for RRIRYRPPRLPRPRPRPGTNPRP is -0.163; for RRIRTRPPRLPRPRPRPWISPRP it is -0.0102; for RRIRGRPPRLPRPRPRPEVWPRP it is 1.58.
The figure for RRIRFRPPRLPRPRPRPHSCPRP is -0.249; for RRIRDRPPRLPRPRPRPTATPRP it is 2.57.
Regarding RRIRSRPPRLPRPRPRPGHIPRP, the “shrunken log2 fold change” value was -0.109.
As for RRIRWRPPRLPRPRPRPHPIPRP, the “shrunken log2 fold change” value was determined as 0.062.
The figure for RRIRFRPPRLPRPRPRPMFVPRP is 0.109; for RRIRPRPPRLPRPRPRPGENPRP it is 0.184; for RRIRHRPPRLPRPRPRPWIGPRP it is -0.0136.
As for RRIRIRPPRLPRPRPRPFDFPRP, the figure is -0.181.
As to RRIRMRPPRLPRPRPRPDGYPRP, the “shrunken log2 fold change” value worked out at 0.818.
RRIRARPPRLPRPRPRPMRLPRP: the “shrunken log2 fold change” value worked out at 1.29.
As for RRIRFRPPRLPRPRPRPCCDPRP, the figure is -0.239; as for RRIRHRPPRLPRPRPRPFATPRP, 0.106; as for RRIRCRPPRLPRPRPRPPLDPRP, 0.616.
RRIRARPPRLPRPRPRPLSFPRP: the “shrunken log2 fold change” value was determined as 0.0158.
In the case of RRIRCRPPRLPRPRPRPSQMPRP, the “shrunken log2 fold change” value is -0.278.
As for RRIRIRPPRLPRPRPRPNQNPRP, the figure is -0.391; as for RRIRNRPPRLPRPRPRPIAPPRP, 0.0153.
Take RRIRLRPPRLPRPRPRPCEDPRP: the “shrunken log2 fold change” value worked out at 0.00976.
The figure for RRIRKRPPRLPRPRPRPHKWPRP is -0.0776; for RRIRFRPPRLPRPRPRPLGCPRP it is 0.121; for RRIRQRPPRLPRPRPRPHWHPRP it is -0.465.
As for RRIRERPPRLPRPRPRPYKQPRP, the “shrunken log2 fold change” value was -0.049.
For RRIRRRPPRLPRPRPRPFSTPRP, the “shrunken log2 fold change” value is -0.0277.
As for RRIRRRPPRLPRPRPRPCLHPRP, the figure is 0.0897; as for RRIRDRPPRLPRPRPRPKGCPRP, 0.0262; as for RRIRGRPPRLPRPRPRPYNTPRP, 0.328.
For RRIRTRPPRLPRPRPRPGFMPRP, the “shrunken log2 fold change” value was -0.0526.
The figure for RRIRHRPPRLPRPRPRPGSSPRP is 0.0127.
